Values joined by “and” are separate entries in the source; they are usually repeats but may differ in a detail not shown here. Equal entries are not always repeated. Where no end group is shown, it is not given here. The star is where a group is joined. FITC = O=C1OC2(c3ccc(O)cc3Oc3cc(O)ccc32)c2ccc(NC(=S)*)cc21
Assays:
collagen membrane = assay: Peptide release (elution) test from collagen membrane in PBS, HPLC; format: binding, porcine; conditions: for Release of the peptide from collagen membrane: eluate in PBS at 37° C.
Protocol: In still another example of the present invention, in order to examine the collagen-binding ability of the fusion peptide that binds specifically to collagen, porcine sink-derived collagen was dissolved in 0.1M HCl at a concentration of 1%(w/v), the pH was neutralized, and the collagen solution was concentrated to 4% by evaporating the solvent. To prepare a membrane, the concentrated collagen solution was poured into a […] diameter dish and mixed, and to prepare a three-dimensional scaffold, the collagen solution was poured onto a 24-well plate for cell culture and mixed. Next, 1% glutaraldehyde or 1% glyceraldehyde was added to crosslink the collagen solution, which was then washed with distilled water and freeze-dried. The resulting membrane having a size of 1×1 cm and a thickness of 250 μm was wet with 10 mg of the fusion peptide of SEQ ID NO: 24 in 100 μl of DW, washed with PBS and freeze-dried. The collagen membrane having the peptide bound thereto was added to PBS and subjected to a peptide release teat at 37° C. After 7 days, 10 ml of the elution solvent added was completely removed, after which 10 ml of a fresh elution solvent was added to the collagen membrane which was then eluted at 37° C. for 4 weeks. After completion of the elution, the membrane was collected and the peptide content thereof was measured.
1 g of porcine skin-derived collagen was dissolved in 100 ml of 0.1M HCl at a concentration of 1%(w/v), and then the pH of the collagen solution was neutralized, and the solvent was evaporated to the collagen solution to 4%.
In order to prepare a membrane, 8 ml of the concentrated collagen solution was poured in a […]-diameter dish and mixed, and in order to prepare a three-dimensional scaffold, 1 ml of the collagen solution was poured in a 24-well plate for cell culture and mixed. Then, 1% glutaraldehyde or 1% glyceraldehydes was added to crosslink the collagen solution, and the crosslinked collagen was washed with distilled water and freeze-dried (see FIG. 1).
0.038 g of the prepared membrane having a size of 1×1 cm and a thickness of 250 μm fall was wet with 10 mg of the fusion peptide of SEQ ID NO: 24 in 100 μl of deionized water (DW), allowed to stand at 4° C. for 8 hours, washed with PBS, and freeze-dried. The collagen membrane having the peptide bound thereto was added to 10 ml of PBS and subjected to a peptide release test at 37° C.
After 7 days, 10 ml of the elution solvent added was completely removed, and then 10 ml of a fresh elution solvent was added to the collagen membrane which was then eluted at 37° C. for 4 weeks. After completion of the elution, the membrane was collected and the peptide content thereof was measured.
0.038 g of the membrane having the peptide bound thereto was precisely weighed, and 5 ml of mobile phase solvent A was added thereto, followed by sonication for 1 hour. Next, 5 ml of mobile phase solvent B was added to and mixed with the membrane solution, and then the mixture was centrifuged at 4500 rpm for 30 minutes. 1 ml of the supernatant was taken and filtered through a 0.22 millipore filter to obtain a sample solution.
A peptide standard was dried in a desiccator (silica gel) for 5 hours, and about 10 mg of the dried peptide was dissolved in mobile phase solvent A. 10 ml of the solution was used as a standard solution. […]

[1] = system: circular skull defect of rabbits; assay: In vivo bone regeneration of peptide-bound collagen membrane in circular skull defect; set-up: species or system New Zealand white rabbits; conditions: 8 mm circular skull defect, 4 weeks after transplantation; compared to membranes with SEQ ID NO: 1 or 9
Text: In still another example of the present invention, in order to examine the in vivo bone regeneration ability of the fusion peptide that binds to the collagen membrane and has the ability to regenerate bone tissue, each of the peptides of SEQ ID NOS: 1, 9 and 24 was bound to the collagen membrane, and then transplanted into the circular skull defect of rabbits, and the bone regeneration ability was examined. Specifically, a circular bone defect having a diameter of 8 mm was formed in the skull of anesthetized rabbits and covered with the collagen membrane, and the periosteum and the skin were doubly sutured. At 4 weeks after the transplantation, the animal was sacrificed, and the collected sample was fixed in a formalin solution. The tissue was embedded to prepare a sample having a thickness of 20 μm. The sample was stained with fuchsin and toluidine blue to prepare a nondemineralized sample. […] Each of the peptides of SEQ ID NOS: 1, 9 and 24, prepared in Example 1, was bound to a collagen membrane according to the method of Example 2, and then transplanted into the circular skull defect of rabbits, and the bone regeneration ability was examined. […]

E. coli = assay: Antibacterial test by agar diffusion method, inhibition diameter of peptide-bound collagen membrane; format: cell-based; conditions: for Antibacterial activity (inhibition diameter) of peptide-bound collagen membrane: incubated for 3 days on E. coli plate
Protocol: In another example of the present invention, in order to examine the antibacterial activity of an antibacterial fusion peptide that binds specifically to collagen, a collagen membrane was prepared using each of the peptides of SEQ ID NO: 1, the peptide of SEQ ID NO: 26 and the peptide of SEQ ID NO: 29 in the same manner as described in Example 2. The prepared collagen membrane was washed in PBS for 1 hour and dried in air. To evaluate the antibacterial activity of the peptide, an antibacterial test was performed according to an agar diffusion method. Specifically, E. coli cells were cultured in TSB medium until the absorbance at 620 nm reached 1, and then the cells were harvested and used in the test. The harvested cells were diluted with PBS, and 10^5-10^7 bacterial cells per ml were plated on a TSA plate and incubated at 37° C for 24 hours. On the plate having the incubated bacterial cells thereon, a collagen membrane having each of the peptides of SEQ ID NOS: 1, 26 and 29 bound thereto was placed and incubated for 3 days. Then, the inhibition diameter against the growth of the bacterial cells was measured. […] Using each of the peptides of SEQ ID NOS: 1, 26 and 29, collagen membranes were prepared in the same manner as described in Example 2. Each of the prepared collagen membranes was allowed to stand in 10 ml of PBS for 1 hour and dried in air. To evaluate the antibacterial activity of the peptides, an antibacterial test was performed according to the agar diffusion method. Specifically, E. coli cells were cultured in TSB (tryptic soy broth) medium until the absorbance at 620 nm reached 1, and then the cells were harvested and used in the test. The harvested cells were diluted with PBS, and 10^5-10^7 bacterial cells per ml were plated on a TSA plate and incubated at 37° C. for 24 hours. On the plate having the incubated bacterial cells thereon, a collagen membrane having each of the peptides of SEQ ID NOS: 1, 26 and 29 bound thereto was placed and incubated for 3 days, and then the inhibition diameter against the bacterial cells was inhibited was measured.

[2] = rabbit, in vivo
Text: In still another example of the present invention, in order to examine the in vivo stability of the fusion peptide that binds to collagen and has the ability to regenerate bone tissue, the peptide of SEQ ID NO: 24 labeled with FITC was bound to the collagen membrane which was then transplanted into a rabbit skull defect. […] Before and at days 1, 3, 7, 14, 21 and 28 after the membrane bound to the peptide of SEQ ID NO: 24 labeled with FITC was transplanted into the rabbit skull defect, the blood was collected and whether the peptide was released into the systemic blood was measured using a fluorometer. […] The peptide of SEQ ID NO: 24 labeled with FITC was bound to a collagen membrane in the same manner as described in Example 2. The collagen membrane was transplanted into the skull defect of a rabbit, and after 4 weeks, the membrane transplanted into the skull defect was observed by confocal microscopy (Olympus, Japan). Before and at days 1, 3, 7, 14, 21 and 28 after 10 mg of the peptide of SEQ ID NO: 24 labeled with FITC was transplanted into the rabbit skull defect, the blood was collected and whether the peptide was released into the systemic blood was measured using a fluorometer.

[3] = biological target: collagen membrane prepared from porcine skin-derived collagen (porcine); assay: HPLC of peptide extracted from the membrane after 4 weeks of elution in PBS at 37 C
[4] = biological target: collagen membrane prepared from porcine skin-derived collagen (porcine); assay: release test in PBS at 37 C, HPLC of the eluate
[5] = after washing in PBS for 1 hour

collagen membrane prepared from porcine skin-derived collagen (porcine), sequence (P12675 whole entry): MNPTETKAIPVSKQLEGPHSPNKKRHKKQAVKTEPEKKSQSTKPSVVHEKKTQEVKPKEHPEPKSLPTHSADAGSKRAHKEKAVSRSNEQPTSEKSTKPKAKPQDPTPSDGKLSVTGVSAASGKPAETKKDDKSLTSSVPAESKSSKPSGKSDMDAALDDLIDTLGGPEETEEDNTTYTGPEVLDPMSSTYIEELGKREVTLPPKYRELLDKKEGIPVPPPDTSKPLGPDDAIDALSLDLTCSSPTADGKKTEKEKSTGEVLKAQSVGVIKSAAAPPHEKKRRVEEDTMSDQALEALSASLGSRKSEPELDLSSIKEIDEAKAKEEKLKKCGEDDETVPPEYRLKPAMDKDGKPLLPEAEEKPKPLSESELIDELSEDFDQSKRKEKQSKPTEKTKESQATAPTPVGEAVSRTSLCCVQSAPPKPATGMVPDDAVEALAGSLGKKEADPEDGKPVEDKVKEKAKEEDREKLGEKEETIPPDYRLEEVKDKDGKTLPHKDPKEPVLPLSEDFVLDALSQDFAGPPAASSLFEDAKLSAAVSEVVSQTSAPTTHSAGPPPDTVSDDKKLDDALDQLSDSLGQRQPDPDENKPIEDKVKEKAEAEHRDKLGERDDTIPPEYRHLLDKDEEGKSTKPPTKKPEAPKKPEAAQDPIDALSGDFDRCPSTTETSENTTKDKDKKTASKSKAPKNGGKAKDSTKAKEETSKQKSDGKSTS

With “GLRSKSKKFRRPDIQYPDARHPLYVDFSDVGWNDWIVA (Collagen Binding Peptide) [SEQ ID NO: 24]” the “Peak of the peptide in the eluate” value (collagen membrane; 4 week elution test, retention time of 13 minutes, Lot Nos. 1, 2 and 3) was “not observed”, the “Content of the peptide remaining on collagen membrane” value (collagen membrane; after completion of the 4 week elution at 37° C., Lot Nos. 1-3, 10 mg peptide loaded) was 9.2 mg and 9.43 mg and 9.68 mg and 9.20 mg and the “Release of the peptide from collagen membrane” value (“Release of the peptide” below) (collagen membrane; day 7, Lot Nos. 1-3, 10 mg peptide loaded) was 0 mg. The “Release of the peptide” value (collagen membrane; day 14, Lot Nos. 1-3, 10 mg peptide loaded) was 0 mg, the “Release of the peptide” value (collagen membrane; day 28, Lot Nos. 1-3, 10 mg peptide loaded) was 0 mg and the “Bone regeneration ability of the collagen membrane having the peptide bound” value [1] was “increased”.

With “GLRSKSKKFRRPDIQYPDA (Collagen Binding Peptide) [SEQ ID NO: 1]” the “Antibacterial activity (inhibition diameter) of peptide-bound collagen membrane” value (E. coli; [5]) was “no antibacterial activity” and the “Antibacterial activity (inhibition diameter) of peptide-bound collagen membrane” value (E. coli; before washing) was “no antibacterial activity”.

In the case of “SEQ ID NO: 24 labeled with FITC: FITC (fluorescein isothiocyanate) bound to the N-terminus of the peptide of SEQ ID NO: 24 ({FITC}-GLRSKSKKFRRPDIQYPDARHPLYVDFSDVGWNDWIVA)”, the “Spread of the peptide to the surrounding tissue (confocal microscopy)” value [2] is reported as “did not spread to the surrounding tissue”.

With “GKCSTRGRKCCRRKK (hBD3-3) [SEQ ID NO: 26, antibacterial peptide derived from human beta-defensin-3]” the “Decrease of antibacterial activity after washing” value (E. coli; after washing in PBS for 1 hour versus before washing) was “about 50%” and the “Antibacterial activity (inhibition diameter) of peptide-bound collagen membrane” value (E. coli; before washing) was “highest antibacterial activity”.

In the case of “GLRSKSKKFRRPDIQYPDAGKCSTRGRKCCRRKK (Collagen Binding Peptide; hBD3-3) [SEQ ID NO: 29]”, the “Antibacterial activity (inhibition diameter) of peptide-bound collagen membrane” value (E. coli; [5]) is reported as “maintained its antibacterial activity”.

With GLRSKSKKFRRPDIQYPDARHPLYVDFSDVGWNDWIVA the content of the peptide remaining on collagen membrane (of 10 mg applied) [3] was 9.2 mg and 9.43 mg and 9.68 mg and the peptide released from collagen membrane [4] was 0 mg.
